Experimental data: US20220033501A1 (SHANGHAI PHARMAEXPLORER, published 2022)

Tests used:
[1] = target: T1, human TIM-3 extracellular domain protein with hFc tag (hTIM-3-hFc) (human, UniProt Q8TDQ0 22-200); assay: ELISA, coated human TIM-3 ECD protein, 0 nM antibody
T1 construct: not shown: human IgG Fc fragment (hFc) of the pCpC vector
T1 sequence: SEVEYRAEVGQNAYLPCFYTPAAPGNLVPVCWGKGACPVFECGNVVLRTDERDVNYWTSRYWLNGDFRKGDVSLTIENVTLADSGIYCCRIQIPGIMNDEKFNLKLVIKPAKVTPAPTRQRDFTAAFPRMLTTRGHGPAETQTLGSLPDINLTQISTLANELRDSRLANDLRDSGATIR

[2] = target: T2, monkey TIM-3 on CHOK1 stable cell line (CHOK1-cTIM-3) (monkey); assay: FACS, CHOK1-cTIM-3 cells, 1.6 nM antibody
T2 chain: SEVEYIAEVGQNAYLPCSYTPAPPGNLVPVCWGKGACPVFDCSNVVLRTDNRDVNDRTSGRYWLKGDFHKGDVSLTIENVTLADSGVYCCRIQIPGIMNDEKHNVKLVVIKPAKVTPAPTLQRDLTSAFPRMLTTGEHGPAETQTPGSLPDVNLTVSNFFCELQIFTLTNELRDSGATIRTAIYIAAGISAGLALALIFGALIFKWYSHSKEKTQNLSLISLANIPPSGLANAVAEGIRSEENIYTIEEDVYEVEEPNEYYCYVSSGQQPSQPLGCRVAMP

[3] = target: T3, monkey TIM-3 extracellular domain protein with hFc tag (cTIM-3-hFc) (monkey); assay: ELISA, coated monkey TIM-3 ECD protein, 0.0067 nM antibody
T3 construct: not shown: human IgG Fc fragment (hFc) of the pCpC vector
T3 chain: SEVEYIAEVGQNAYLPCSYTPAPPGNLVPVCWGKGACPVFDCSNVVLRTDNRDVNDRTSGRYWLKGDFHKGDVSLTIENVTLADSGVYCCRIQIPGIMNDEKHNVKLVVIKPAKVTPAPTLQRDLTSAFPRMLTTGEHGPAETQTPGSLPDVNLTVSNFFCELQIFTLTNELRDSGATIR

[4] = target: T4, human TIM-3 on CHOK1 stable cell line (CHOK1-hTIM-3) (human, UniProt Q8TDQ0 22-301); assay: FACS, CHOK1-hTIM-3 cells, 0 nM antibody
T4 sequence: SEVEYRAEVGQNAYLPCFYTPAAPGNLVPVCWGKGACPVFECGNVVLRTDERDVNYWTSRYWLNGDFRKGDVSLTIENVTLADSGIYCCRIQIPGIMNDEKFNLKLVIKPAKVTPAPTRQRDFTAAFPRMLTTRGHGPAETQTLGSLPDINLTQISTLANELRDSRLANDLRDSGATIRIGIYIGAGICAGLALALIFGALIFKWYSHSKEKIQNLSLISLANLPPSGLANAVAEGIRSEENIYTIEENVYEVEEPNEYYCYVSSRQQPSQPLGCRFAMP

B1: 34B6D8 fully human TIM-3 antibody (human IgG4, kappa) (antibody, V domains shown)
VH: EVQLVESGGGLVQPGGSLRLSCAASGFTFSTYWMTWVRQAPGKRLEWVANIKQGGGDKYYVDSVKGRFTISTDNAKNSLYLQMNSLRAEDTAVYYCARGSNWFDPWGQGTLVTVSS
VL: EIVMTQSPATLSMSPGERATLSCRASQSVYDNLAWYQQKPGQAPRLLIYGASTRATGIPARFSGSGSGTEFTLTISSLQSEDFALYYCQQYTHWPITFGQGTRLEIK
**Q.** How did the OD450 [1] turn out when B1 was run?
**A.** The OD450 was 0.09.

**Q.** What about the Mean fluorescence intensity [2] of the same binder?
**A.** Its Mean fluorescence intensity is 266.

**Q.** And the OD450 [3]?
**A.** The OD450 was 0.37.

**Q.** And the Mean fluorescence intensity [4]?
**A.** Its Mean fluorescence intensity is 2.9.

B2: 39E5H1 fully human TIM-3 antibody (human IgG4, kappa) (antibody, V domains shown)
VH: EVQLVESGGGLVQPGGSLRLSCAASGFTFSSYWMSWVRQAPGKGLEWVANIKRGGSERYYVDSVKGRFTISGDNAKNSVYLQMNSLRAEDTAVYYCARGSNWFDPWGQGTLVTVSS
VL: ETVMTQSPAILSVSPGERATLSCRASQSVYSNLAWYQQKLGQAPRLLIYDASTRATGIPARFSGSGSGTEFTLTISSLQSEDFAVYYCQQYNNWPITFGQGTRLEIK
**Q.** How did the OD450 [1] turn out when B2 was run?
**A.** Its OD450 is 0.08.

**Q.** What about the Mean fluorescence intensity [2] of the same binder?
**A.** Its Mean fluorescence intensity is 315.

**Q.** And the OD450 [3]?
**A.** The OD450 was 0.3.

**Q.** What about the Mean fluorescence intensity [4] of the same binder?
**A.** Its Mean fluorescence intensity is 2.8.
